Results from patent publication US20040171074A1, “Structures of substrate binding pockets of SCF complexes” (MOUNT SINAI HOSPITAL, priority 2002, published 2004).
Non-standard residues stand in square brackets, D forms with d. pT = C[C@@H](OP(=O)(O)O)[C@H](N)C(=O)O

T1: Cdc4 (Saccharomyces cerevisiae, UniProt P07834)
T1 sequence (P07834 1-779): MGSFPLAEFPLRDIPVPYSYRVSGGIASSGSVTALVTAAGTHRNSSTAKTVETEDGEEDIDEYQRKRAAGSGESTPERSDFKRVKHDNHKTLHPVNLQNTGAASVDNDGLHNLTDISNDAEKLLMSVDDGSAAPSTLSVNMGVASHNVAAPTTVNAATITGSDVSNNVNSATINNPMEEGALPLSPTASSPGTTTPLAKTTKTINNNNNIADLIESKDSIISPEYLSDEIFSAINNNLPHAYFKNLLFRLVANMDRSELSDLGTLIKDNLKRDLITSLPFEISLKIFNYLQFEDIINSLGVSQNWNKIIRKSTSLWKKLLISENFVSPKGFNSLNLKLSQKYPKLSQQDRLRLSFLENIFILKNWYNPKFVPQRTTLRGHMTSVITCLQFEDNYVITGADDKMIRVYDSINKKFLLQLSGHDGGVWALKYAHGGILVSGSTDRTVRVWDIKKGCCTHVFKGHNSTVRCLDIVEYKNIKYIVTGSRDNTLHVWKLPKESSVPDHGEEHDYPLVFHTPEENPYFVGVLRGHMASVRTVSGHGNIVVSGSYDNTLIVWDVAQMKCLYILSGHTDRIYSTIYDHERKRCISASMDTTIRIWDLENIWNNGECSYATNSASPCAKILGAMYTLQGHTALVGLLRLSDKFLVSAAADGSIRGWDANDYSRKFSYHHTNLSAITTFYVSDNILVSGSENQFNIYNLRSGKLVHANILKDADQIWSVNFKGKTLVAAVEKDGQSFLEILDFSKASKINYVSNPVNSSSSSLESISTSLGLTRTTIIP

T2: phospho-Sic1 isoforms (Saccharomyces cerevisiae, UniProt P38634)
T2 construct: His6 (N); made in house; host or cells: bacteria (Sic1, Cdc4-GST-Skp1); insect cells (Cdc53-Rbx1)
T2 sequence (P38634 1-284): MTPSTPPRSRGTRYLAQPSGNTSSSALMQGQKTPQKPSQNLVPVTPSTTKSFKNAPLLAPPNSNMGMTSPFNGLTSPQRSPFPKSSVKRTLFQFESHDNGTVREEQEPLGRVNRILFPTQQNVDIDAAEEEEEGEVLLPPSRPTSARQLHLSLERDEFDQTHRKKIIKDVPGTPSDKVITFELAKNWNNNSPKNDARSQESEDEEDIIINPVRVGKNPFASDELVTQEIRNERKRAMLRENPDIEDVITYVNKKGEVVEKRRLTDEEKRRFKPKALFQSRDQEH


Experiments:
[1] = biological target: T1, Cdc4; settings: cyclin E derived nine-residue CPD phosphopeptide binding Cdc4 (Nash et al., 2001); cited from earlier work
[2] = tested on: cdc4Δ strain overexpressing SIC1; assay: sensitivity to SIC1 dosage: GAL1-SIC1 overexpression in strains bearing CDC4 alleles; type: cell-based, yeast; settings: galactose, 2 days at 30° C.
Outline: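 SIC1 dosage sensitivity: cdc4Δ strains carrying CDC4 mutant alleles (after plasmid shuffle) transformed with GAL1-SIC1 or GAL1-SIC1^T33V (also T45A), plated on glucose versus galactose medium for 2 days at 30 °C. Growth on galactose scored as tolerance of SIC1 overexpression.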

[3] = tested on: phospho-Sic1; assay: P-Sic1 pull down: in vitro capture of phospho-Sic1 on immobilized wild type or mutant Cdc4-GST-Skp1, anti-Sic1 immunoblot; type: binding, yeast; settings: Sic1 phosphorylated with Cln2-Cdc28, captured onto GST-Skp1/Cdc4 resin, anti-Sic1 detection
Outline: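 Bacterial His6-Sic1 phosphorylated by Cln2-Cdc28 from Sf9 cells; 0.5 μg phospho-Sic1 incubated with 1 μg immobilized wild-type or mutant Cdc4(263-744)-GST-Skp1 at 4° C for 1 h, washed four times. Bound Sic1 detected by anti-Sic1 immunoblot after SDS-PAGE.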

[4] = tested on: cdc4Δ strain; assay: plasmid shuffle assay: complementation of a cdc4Δ strain by CDC4 alleles; type: cell-based, yeast; settings: viability of cdc4Δ strain on 5-FOA, 2 days at 30° C.
Outline: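 Mutant CDC4 alleles on TRP1 CEN plasmids were shuffled into cdc4Δ strain MT 1259 carrying wild-type CDC4 on a URA3 plasmid, with growth on 5-FOA for 2 days at 30° C. Survivors were transformed with GAL1-SIC1 or phosphosite mutants and plated on glucose or galactose, 2 days at 30° C.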

[5] = tested on: phospho-Sic1 isoforms; assay: IEF-2D gel analysis of Sic1 phospho-isoforms captured by wild type or mutant Cdc4-GST-Skp1; type: binding, yeast; settings: pool of Sic1 phosphorylated on 1 to 9 sites; listed as Wild type Cdc4
Description: Bacterially expressed His6-Sic1 was phosphorylated with Cln2-Cdc28 kinase purified from baculovirus infected Sf9 cells as described before (Nature paper). 1 ug of WT or mutant Cdc4-GST-Skp1, immoblized on GSH-Sepharose resin, was incubated with 0.5 ug phospho-Sic1 at 4 C for 1 h and washed 4 times. Captured complexes were resolved on SDS-PAGE and Sic1 visualized by anti-Sic1 Western blotting and ECL. For IEF-2D analysis, several Sic1 phosphorylation reactions were carried out for different time periods to obtain a spectrum of Sic1 that were phosphorylated at different numbers of its nine CDK sites. This pool of phospho-Sic1 (2.5 ug) was incubated with 5 μg of WT or mutant Cdc4-GST-Skp1 as described above. Different phosphorylation states of Sic1 were separated by denaturing isoelectric focusing (IEF)-2D gel electrophoresis and visualized by anti-Sic1 Western blotting and ECL. IEF was performed using pH 3-10NL Immobiline gel strips and IPGphore IEF system (Amersham pharmacia).
Cdc4 functional assays. CDC4 mutant alleles were assessed for complementation of a cdc4A strain in a plasmid shuffle assay (Nash et al., 2001). Sensitivity to SIC1 dosage was determined by transformation with pMT837 (GAL1-SIC1) or pMT767 (GAL1-SIC1^T33V) and plating on glucose medium or galactose medium. […]

[6] = biological target: T2, phospho-Sic1 isoforms; assay: in vitro ubiquitination of phospho-Sic1 isoforms by wild type or mutant SCFCdc4 complex; type: biochemical, yeast; settings: Cdc34, ubiquitin, ATP, 1 h at 30° C.

Row | Molecule | Kd [1] | gal Sic1T33V ([2]; GAL1-SIC1 T33V (partially stabilized Sic1)) | gal Sic1T45A ([2]; GAL1-SIC1 T45A) | gal Sic1 wt ([2]; GAL1-SIC1 wild type) | P-Sic1 pull down [3] | shuffle [4] | Sic1 phospho-isoforms captured (number of phosphorylated sites) [5] | conversion of Sic1 phosphorylated on four or five sites to oligo-ubiquitinated species [6]
1 | Ac-GLL[pT]PPQSG-NH2 [CPD phosphopeptide] | 1000 nM |  |  |  |  |  |  | 
2 | WT: wild type yeast Cdc4 F-box protein (protein, UniProt P07834 1-779, looked up) Cell division control protein …: MGSFPLAEFPLRDIPVPYSYRVSGGIASSGSVTALVTAAGTHRNSSTAKTVETEDGEEDIDEYQRKRAAGSGESTPERSDFKRVKHDNHKTLHPVNLQNTGAASVDNDGLHNLTDISNDAEKLLMSVDDGSAAPSTLSVNMGVASHNVAAPTTVNAATITGSDVSNNVNSATINNPMEEGALPLSPTASSPGTTTPLAKTTKTINNNNNIADLIESKDSIISPEYLSDEIFSAINNNLPHAYFKNLLFRLVANMDRSELSDLGTLIKDNLKRDLITSLPFEISLKIFNYLQFEDIINSLGVSQNWNKIIRKSTSLWKKLLISENFVSPKGFNSLNLKLSQKYPKLSQQDRLRLSFLENIFILKNWYNPKFVPQRTTLRGHMTSVITCLQFEDNYVITGADDKMIRVYDSINKKFLLQLSGHDGGVWALKYAHGGILVSGSTDRTVRVWDIKKGCCTHVFKGHNSTVRCLDIVEYKNIKYIVTGSRDNTLHVWKLPKESSVPDHGEEHDYPLVFHTPEENPYFVGVLRGHMASVRTVSGHGNIVVSGSYDNTLIVWDVAQMKCLYILSGHTDRIYSTIYDHERKRCISASMDTTIRIWDLENIWNNGECSYATNSASPCAKILGAMYTLQGHTALVGLLRLSDKFLVSAAADGSIRGWDANDYSRKFSYHHTNLSAITTFYVSDNILVSGSENQFNIYNLRSGKLVHANILKDADQIWSVNFKGKTLVAAVEKDGQSFLEILDFSKASKINYVSNPVNSSSSSLESISTSLGLTRTTIIP |  | alive | dead | alive | bind | alive | six or more sites | unable
